Earlier results as cited in article PMC7174325.
Where two headings read alike, the source gives them in different places. One block for each substance: values may come before it.

Columns and labels:
[1] = target: BAX (Homo sapiens) (UniProt Q07812); experiment: ITC
[2] = target: BAK (Homo sapiens) (UniProt Q16611); experiment: ITC
[3] = target: BAD (Homo sapiens) (UniProt Q92934)
[4] = target: BAD (Homo sapiens) (UniProt Q92934); remark: listed apart in the source

Chain of BAD (Homo sapiens) (Q92934 whole entry): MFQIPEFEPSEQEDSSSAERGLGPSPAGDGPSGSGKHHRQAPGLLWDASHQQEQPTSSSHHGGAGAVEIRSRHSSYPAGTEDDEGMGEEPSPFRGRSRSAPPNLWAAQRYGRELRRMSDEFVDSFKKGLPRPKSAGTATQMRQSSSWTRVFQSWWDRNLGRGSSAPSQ
Chain of BCL-w (Q92843 2-193): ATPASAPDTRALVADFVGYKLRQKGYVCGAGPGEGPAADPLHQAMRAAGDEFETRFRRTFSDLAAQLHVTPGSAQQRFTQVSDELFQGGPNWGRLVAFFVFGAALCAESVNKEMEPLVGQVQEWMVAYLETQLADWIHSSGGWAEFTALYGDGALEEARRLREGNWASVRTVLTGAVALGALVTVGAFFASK
Chain of BAK (Homo sapiens) (Q16611 2-211): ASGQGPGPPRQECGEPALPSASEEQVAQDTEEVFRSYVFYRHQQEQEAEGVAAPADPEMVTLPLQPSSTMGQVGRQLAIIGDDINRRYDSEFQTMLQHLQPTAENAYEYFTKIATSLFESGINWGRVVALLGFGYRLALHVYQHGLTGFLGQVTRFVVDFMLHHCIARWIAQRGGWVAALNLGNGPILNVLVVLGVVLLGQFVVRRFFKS
Chain of BCL-w monomer (Q92843 2-193): as the sequence (Q92843 2-193) above
Chain of BCL-w homodimer (Q92843 2-193): as above
Chain of BAX (Homo sapiens) (Q07812 whole entry): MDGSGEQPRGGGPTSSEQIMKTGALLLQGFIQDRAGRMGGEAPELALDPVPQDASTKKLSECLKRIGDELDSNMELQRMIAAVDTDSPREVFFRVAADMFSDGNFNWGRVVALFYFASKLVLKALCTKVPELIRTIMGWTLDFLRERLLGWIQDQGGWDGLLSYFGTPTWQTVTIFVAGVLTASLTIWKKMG

Kd [1]: 0.0229 µM
Kd [2]: 0.114 µM
Substance: BCL-w (from UniProt Q92843)

Kd [3]: 0.15 µM
Substance: BCL-w homodimer (from UniProt Q92843)

Kd [4]: 0.014 µM
Substance: BCL-w monomer (from UniProt Q92843)
